Measurements reported in patent US20260242478A1 (published 2026).
Where no end group is shown, it is not given here.

Columns and labels:
[1] = biological target: T1, Anti-PSMA Fab; assay: clonal phage ELISA on biotinylated PSMA Fab captured on neutravidin plates, anti-M13-HRP detection;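 further: crude clonal phage supernatants added to wells preincubated with PSMA antigen or with blocking buffer only (no wash between), briefly incubated, then washed before detecting bound phage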
T1 construct: also called 006 PSMA Fab
Experimental: (§1) Clonal phage were harvested as crude supernatants and screened via standard ELISAs. […] Prior to the addition of clonal phage. wells were incubated with blocking buffer and PSMA antigen or blocking buffer alone. Without washing or aspirating, clonal phage supernatants were then added to the wells and incubated for a short time. Wells were then washed followed by detection of bound phage using a horse radish conjugated anti-M13 antibody.

[2] = biological target: T1, Anti-PSMA Fab; assay: clonal phage ELISA on captured PSMA Fab, wells pre-incubated with PSMA antigen as competitor, anti-M13-HRP detection;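 further: crude clonal phage supernatants added without washing after the PSMA preincubation, comparison wells received blocking buffer alone without PSMA, bound phage read after washing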
Experimental: as §1

[3] = biological target: T2, PSMA Fab (006 PSMA Fab); assay: phage ELISA; biotinylated PSMA Fab on neutravidin plate, clonal phage supernatant, anti-M13 HRP detection;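 further: wells preincubated with PSMA antigen in blocking buffer or with blocking buffer only before clonal phage were added for a short incubation, then bound phage detected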
T2 construct: also called Anti-PSMA Fab; anti-PSMA Fab
Experimental: as §1

[4] = biological target: T2, PSMA Fab (006 PSMA Fab); assay: phage ELISA; biotinylated PSMA Fab on neutravidin plate pre-incubated with PSMA antigen as competitor, anti-M13 HRP detection;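 further: crude clonal phage supernatants tested, compared against control wells pre-incubated with blocking buffer only, without PSMA antigen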
Experimental: as §1

B1: Phage-3788 (peptide)
peptide: MLRSCVPPWMCAGF
modifications: cysteine pairing not given here; also: displayed on phage as fusion to pIII, junction not given here
notes: Clone of the Peptide-180 optimisation library, tested as clonal phage supernatant
For B1, the “Phage binding ELISA signal, Anti-PSMA Fab” value [1] was 1.32 and the “Phage binding ELISA signal, Anti-PSMA Fab with PSMA antigen” value [2] was 0.0821.

For YSNFCVPHWMCSGF [Phage-3782], the “Phage binding ELISA signal, Anti-PSMA Fab” value [3] was 1.33 and the “Phage binding ELISA signal, Anti-PSMA Fab in presence of PSMA” value (shortened to “Phage binding ELISA signal … of PSMA”) [4] was 0.0679.

B2: Phage-3787 (peptide)
peptide: LKVECRPLWMCEGF
notes: as for B1
B2 was tested, and the “Phage binding ELISA signal, Anti-PSMA Fab” value [1] was 1.32 and the “Phage binding ELISA signal, Anti-PSMA Fab with PSMA antigen” value [2] was 0.075.

B3: Phage-3794 (peptide)
peptide: TVKQCVPEWMCVML
notes: as for B1
For B3, the “Phage binding ELISA signal, Anti-PSMA Fab” value [1] was 1.31 and the “Phage binding ELISA signal, Anti-PSMA Fab with PSMA antigen” value [2] was 0.104.

B4: Phage-3793 (peptide)
peptide: FAFDCVPKWMCTGF
notes: as for B1
With B4 the “Phage binding ELISA signal, Anti-PSMA Fab” value [1] was 1.31 and the “Phage binding ELISA signal, Anti-PSMA Fab with PSMA antigen” value [2] was 0.0829.

B5: Phage-3786 (peptide)
peptide: EMIRCEPRWMCSGF
modifications: cysteine pairing not given here; also: displayed on phage as fusion to pIII, junction not given here
notes: as for B1
B5 was tested, and the “Phage binding ELISA signal, Anti-PSMA Fab” value [1] was 1.32 and the “Phage binding ELISA signal, Anti-PSMA Fab with PSMA antigen” value [2] was 0.0656.

B6: Phage-3792 (peptide)
peptide: HMQYCIPQWMCHGF
notes: as for B1
For B6, the “Phage binding ELISA signal, Anti-PSMA Fab” value [1] was 1.32 and the “Phage binding ELISA signal, Anti-PSMA Fab with PSMA antigen” value [2] was 0.0825.

B7: Phage-3790 (peptide)
peptide: VSQLCIPEWMCIGI
notes: as for B1
For B7, the “Phage binding ELISA signal, Anti-PSMA Fab” value [1] was 1.32 and the “Phage binding ELISA signal, Anti-PSMA Fab with PSMA antigen” value [2] was 0.08.

B8: Phage-3781 (peptide)
peptide: LVARCVPEWMCAGF
modifications: cysteine pairing not given here; also: displayed on phage as fusion to pIII, junction not given here
In the case of B8, the “Phage binding ELISA signal, Anti-PSMA Fab” value [3] is reported as 1.33 and the “Phage binding ELISA signal … of PSMA” value [4] is reported as 0.102.

B9: Phage-3795 (peptide)
peptide: DLIYCRPAWMCDGF
notes: as for B1
For B9, the “Phage binding ELISA signal, Anti-PSMA Fab” value [1] was 1.31 and the “Phage binding ELISA signal, Anti-PSMA Fab with PSMA antigen” value [2] was 0.0679.

B10: Phage-3796 (peptide)
peptide: MERSCIPDWMCLGF
notes: as for B1
B10 was tested, and the “Phage binding ELISA signal, Anti-PSMA Fab” value [1] was 1.31 and the “Phage binding ELISA signal, Anti-PSMA Fab with PSMA antigen” value [2] was 0.0541.

B11: Phage-3789 (peptide)
peptide: EQVLCRPEWMCIGF
notes: as for B1
B11 was tested, and the “Phage binding ELISA signal, Anti-PSMA Fab” value [1] was 1.32 and the “Phage binding ELISA signal, Anti-PSMA Fab with PSMA antigen” value [2] was 0.0856.

For SVVKCVPSWMCTGF [Phage-3785], the “Phage binding ELISA signal, Anti-PSMA Fab” value [3] was 1.32 and the “Phage binding ELISA signal … of PSMA” value [4] was 0.0729.

B12: Phage-3791 (peptide)
peptide: VHMACTPWWMCVGF
notes: as for B1
For B12, the “Phage binding ELISA signal, Anti-PSMA Fab” value [1] was 1.32 and the “Phage binding ELISA signal, Anti-PSMA Fab with PSMA antigen” value [2] was 0.0962.

VEVRCVPAWMCEGL [Phage-3783] was tested, and the “Phage binding ELISA signal, Anti-PSMA Fab” value [3] was 1.33 and the “Phage binding ELISA signal … of PSMA” value [4] was 0.0698.

PGASCVPAWMCDGF [Phage-3784] was tested, and the “Phage binding ELISA signal, Anti-PSMA Fab” value [3] was 1.33 and the “Phage binding ELISA signal … of PSMA” value [4] was 0.0653.
